Measured values reported in the nanobody polyreactivity screen of Harvey et al. (2022).

Assay: yeast display, Sf9 membrane polyspecificity reagent, FACS + sequencing; frameworks hold sequencing errors
Summary of the method: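 A synthetic nanobody library was expressed on Saccharomyces cerevisiae BJ5465 by galactose induction for 36–48 hours. The library was stained for 1 hour at 4 °C with 10% biotinylated, detergent-solubilized Sf9 membrane reagent and enriched with streptavidin microbeads before FACS. Low and high (top ~1%) gates were set on anti-HA fluorescence for expression and streptavidin fluorescence for reagent binding, and each polyreactivity label reflects the gate of origin.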

Row | Sequence | polyreactivity (PSR sort gate)
1 | QVQLVESGGGLVQAGGSLRLSCAASGGIFGRYAMGWYRQAPGKERELVAAISKRGGSTYYADSVKGRFTISRDNAKNTVYLQMNSLKPEDTAVYYCNAKRSLFGRYGYWGQGTQVTVSS | high polyreactivity
2 | QVQLVESGGGLVQAGGSLRLSCAASGGIFGSYAMGWYRQAPGKERELVAAITSGGRTTYADSVKGRFTISRDNAKNTVYLQMNSLKPEDTAVYYCNAGRVFGNYFFRVYYYWGQGTQVTVSS | high polyreactivity
3 | QVQLVESGGGLVQAGGSLRLSCAASGGIFHGNTMGWYRQAPGKERELVAAISNSGGSTYYADSVKGRFTISRDNAKNTVYLQMNSLKPEDTAVYYCARVGYKLYQYKYDYWGQGTQVTVSS | low polyreactivity
4 | QVQLVESGGGLVQAGGSLRLSCAASGGIFKRYAMGWYRQAPGKERELVAAISGRGGGTYYADSVKGRFTISRDNATNTVYLQMTSLKPEDTAVYYCNARLSWSAFGYWGQGTQVTVSS | high polyreactivity
5 | QVQLVESGGGLVQAGGSLRLSCAASGGIFKWYDMGWYRQAPGKEREFVAAITWSGGSTYYADSVKGRFTISRDNAKNTVYLQMNSLKPEVTAVYYCNVDWYPRGPHTVVFYDVSPFDYWGQGTQVTVSS | high polyreactivity
6 | QVQLVESGGGLVQAGGSLRLSCAASGGIFLPNAMGWYRQAPGKERELVAAISTGGSTNYADSVKGRFTISRDTAKNTVYLQMNSLKPEDTAVYYCAATPYNYVGFSRGGDYWGQGTQVTVSS | low polyreactivity
7 | QVQLVESGGGLVQAGGSLRLSCAASGGIFLYYAMGWYSQAPGKVRELVAAISSRGGSTYYAHSVKGRYTISRDNAKNTVYLQMNSLKPEDTAVYYCAAESGYYRRTGIFYSWGQGTHVTVSS | high polyreactivity
8 | QVQLVESGGGLVQAGGSLRLSCAASGGIFPFYAMGWYRQAPGKERELVAAISSGGSTYYADSVKGRFTISRDNAKNTVYLQMNSLKPEDTAVYYCAKRISTRRYDYWGQGTQVTVSS | low polyreactivity
9 | QVQLVESGGGLVQAGGSLRLSCAASGGIFPGNTMGWYRLAPRKESELVAAISNGVSTNYADSVKGRFTISRDNAKNTVYLQMNSLKPEDTAVYYCAADWSWWDGEDYHFEYDYWGQGTQVTVSS | low polyreactivity
10 | QVQLVESGGGLVQAGGSLRLSCAASGGIFQPNAMGWYRQAPGKERELVASISSDGSTNYADSVKGRFTISRDNAKNTVYLQMTSLKPEDTAVYYCAAAVKRGYAQSFISDGYGYWGQGTQVTVSS | low polyreactivity
11 | QVQLVESGGGLVQAGGSLRLSCAASGGIFRGYAMGWYRQAPGKERELVAAITKRGGRTYYADSVKGRFTISRDNAKNTVYLQMNSLKPEDTAVYYCAADYYAAYHLPDQDYDYWGQGTQVTVSS | high polyreactivity
12 | QVQLVESGGGLVQAGGSLRLSCAASGGIFRGYTMGWYRQAPGKERELVAAISKGGGSTYYADSVKGRFTISRDIAKNTVYLQMNSLKPEDTAVYYCAARHVYPLLDYWGQGTQVTVSS | high polyreactivity
13 | QVQLVESGGGLVQAGGSLRLSCAASGGIFRLYGMGWYRQAPGKERELVAAIRQSGGRTYYADSVKGRFTISRDNAKNTVYLQMNSLKPEDTAVYYCAADLLYRSSGSARLDYDYWGQGTQVTVSS | low polyreactivity
14 | QVQLVESGGGLVQAGGSLRLSCAASGGIFRQYAMGWYRQAPGKERELVAAISYNTGSTYYADSVKWRFTISRDNAKNTVYLQMNSLKPEDTAVYYCAKDIVIPATYVEYDYWGKGTQVTVSS | low polyreactivity
15 | QVQLVESGGGLVQAGGSLRLSCAASGGIFRYAMGWYRQAPGKEREFVAAITTRGGSTYYADSVKGRFTISRDNAKNTVYLQMNSLKPEDTAVYYCAARPYSGRNKYDYWGQGTQVTVSS | high polyreactivity
16 | QVQLVESGGGLVQAGGSLRLSCAASGGIFRYNAMGWYRQAPGKERELVAAISYRGGSTYYADSVKGRFTISRDNAKNTVYLQMNSLKPEDTAVYYCAAVYYQDKRGDYWGQGTQVTVSS | high polyreactivity

Row | Sequence | polyreactivity (PSR sort gate)
17 | QVQLVESGGGLVQAGGSLRLSCAASGGIFRYYAMGWYRQAPGKERELVARISRRAGSTYYADSVKGRFTISRDNAKNTVYLQMNSLKPEDTAVYYCNKVGGTLGYDYWGQGTQVTVSS | high polyreactivity
18 | QVQLVESGGGLVQAGGSLRLSCAASGGIFSCKAMGWYRQAPGKERELVAAITTRGGSTYYADSVKGRFTISRDNAKNSVYLQMNSLKPEDTAVYYCAAEGYEEFNWGQGTQVTVSS | low polyreactivity
19 | QVQLVESGGGLVQAGGSLRLSCAASGGIFSSYAMGWYRQAPGKERELVADISWNGDSTYYADSVKGRFTISRDNAKNTVYLQMNSLKPEDTAVYYCNAQWYFTPGTPVDYWGQGTQLTVSS | low polyreactivity
20 | QVQLVESGGGLVQAGGSLRLSCAASGGIFSVYAMGLYRQAPGKERELVASITVSGGSTSYADSVKGRFTISRDNAKNTVYLQMNSLKPEDTAVYYCNTDFGQAHTLSWYEDMDYWGQGTQVTVSS | low polyreactivity
21 | QVQLVESGGGLVQAGGSLRLSCAASGGIFSVYGMGWYRQAPGKERELVAVIRRGGSTYYADSVKGRFTISRDNAKNTVYLQMNSLKPEDTAVYYCATDYPGYFVDGNYYWGQGTQVTVSS | low polyreactivity
22 | QVQLVESGGGLVQAGGSLRLSCAASGGIFSYYAMGWSRQSPGKEREFVAAIDWGGGSTYYADSVKGRFTISRDNAKNTLNLQMNSLKPEDTAVYYCAAEIYPIRWDDYDYWGQGTQVTVSS | low polyreactivity
23 | QVQLVESGGGLVQAGGSLRLSCAASGGIFSYYAMGWYIQAPGKERELVAAISGSGGRTYYADSVKGRFTLSRDNAKNTVYLQMNSLKPEDTAVYYCAAYPVNRVDYRYDYWGQGTQVTVSS | high polyreactivity
24 | QVQLVESGGGLVQAGGSLRLSCAASGGIFTAYPMGWSRQAPGKERELVATITRGGSTNYADSVKGRFTISRDNAKNTVYLQMNSLKPEDTAVYYCNARYSWRSKWWTEDDYWGQGTQVTVSS | high polyreactivity
25 | QVQLVESGGGLVQAGGSLRLSCAASGGIFTAYTIGWYRQAPGKERELVATITRGGSTNYADSVKGRFTISRDNAMNTVYLQMNSLKPEDTAVYYCNARVQRRGVQYYYWGHGTQVTVSS | high polyreactivity
26 | QVQLVESGGGLVQAGGSLRLSCAASGGIFTGYAMGRYRQAPGKERELVAAISSGGTTYYADSVKGRFTISRDNAKNTVDLQMNSLKPEDTAVYYCAAGFYLRAVWMDYWGQGSQVTVSS | high polyreactivity
27 | QVQLVESGGGLVQAGGSLRLSCAASGGIFTLYVRGWYRQAPGKERELVAAISRTGGSTYYADSVKGRFTISRDNAKNTVYLQMNSLKPEDTAVYFCAALYRGGTRYGGYDYWGQGTQVTVSS | low polyreactivity
28 | QVQLVESGGGLVQAGGSLRLSCAASGGIFTSYDMGWYRQAPAKEREFVAGISDSGGSTYYADSVKGRFTISRDNAKNTVYLQMNSLKPEDTAVYYFAADAWYVWEYWWQTEDDYWGQGTEVTVSS | high polyreactivity
29 | QVQLVESGGGLVQAGGSLRLSCAASGGIFTYYAMGGYRQAPGKERELVAAITWSGGSTYYADSVKGRFTISRDNAKNTVYLQMNSLKPEETAVYYCNAVVLHVTTDNSTFTTDDYWGHGTQVTVSS | low polyreactivity
30 | QVQLVESGGGLVQAGGSLRLSCAASGGIFVPYAMGWYRQAPGKERELVAGITSGGSTNYADSVKGRFTISRDNAKNTVYLQMNSLKPVDTAVYYCAARRRPGGRYKSRVWYDYWGQGTQVTVSS | high polyreactivity
31 | QVQLVESGGGLVQAGGSLRLSCAASGGIFVRNAMLWYRQAPGKERELVAAISDTGGSTYYADSVKGRFTISRDNAKNTVYLQMNSLKPEDTAVYYCAADLSPEADDYDVGGWRFRYDYWGQGTQVTVSS | low polyreactivity
